In paper PMC11813165:
Read-outs that look alike come from different tables or passages of the source.

Legend:
[1] = biological target: NiV (Bangladesh strain) L (full-length, with C-terminal triple strep tag) (Nipah virus (Bangladesh strain)) (UniProt Q997F0); test: mass photometry
[2] = biological target: NiV (Bangladesh strain) L (full-length, with C-terminal triple strep tag) (Nipah virus (Bangladesh strain)) (UniProt Q997F0); test: mass photometry; remark: listed apart in the source

Which stoichiometry N [1] does the source give for “NiV (Bangladesh strain) P (full-length, with N-terminal polyhistidine tag) (from UniProt Q4VCQ1 1-709) (natural protein)” here?
Its stoichiometry N is 4.

What about the stoichiometry N [2] of the same substance?
Its stoichiometry N is 3.
